Experimental findings from paper PMC7409020, “Tumor-Targeting Peptides: The Functional Screen of Glioblastoma Homing Peptides to the Target Protein FABP3 (MDGI)” (Cancers, 2020) are described below.

In the assay the target is recombinant N-terminal His6-tagged human FABP3 (human). The assay is described as follows: MST; Monolith NT.115; 20 nM NT-650-NHS-labelled FABP3, unlabelled peptides 500 µM to 0.0153 µM in two-fold dilutions; 25 °C; PBS with 0.05% Tween 20, pH 7.4; 40% MST power, 60% LED power; 1:1 fit; triplicates.
recombinant N-terminal His6-tagged human FABP3 (human), sequence (P05413 2-133): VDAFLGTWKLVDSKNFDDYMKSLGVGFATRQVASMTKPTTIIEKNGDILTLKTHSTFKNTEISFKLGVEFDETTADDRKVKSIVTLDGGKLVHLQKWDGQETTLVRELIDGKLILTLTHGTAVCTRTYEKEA

Square brackets hold non-standard residues; d marks the D form. Ends that are not written are not given here.

Broadly, the Kd is the concentration at which binding is half-saturated.

B1: KA-CooP (peptide)
peptide: KACGLSGLGVA-NH2
B1: the Kd came out at 0.63 µM.

B2: A-CooP-K (peptide)
peptide: ACGLSGLGVAK-NH2
As for B2, the dissociation constant (Kd) was 0.07 µM.

B3: RI-A-CooP (peptide)
peptide: [dA][dV]G[dL]G[dS][dL]G[dC][dA]-NH2
modifications: N-terminus assumed
SMILES: CC(C)C[C@@H](NC(=O)CNC(=O)[C@H](NC(=O)[C@@H](C)N)C(C)C)C(=O)NCC(=O)N[C@H](CO)C(=O)N[C@H](CC(C)C)C(=O)NCC(=O)N[C@H](CS)C(=O)N[C@H](C)C(N)=O
B3: the fold lower binding affinity compared to A-CooP turned out to be 10 fold.

B4: A-[Ala^7]CooP (peptide)
peptide: ACGLSGLAVA-NH2
Regarding B4, the Kd is 133 µM.

B5: A-CooP (peptide)
peptide: ACGLSGLGVA-NH2
As to B5, the Kd was 2.18 µM.
